{"source": "paper PMC8139980", "about": "“Qki activates Srebp2-mediated cholesterol biosynthesis for maintenance of eye lens transparency”", "key": {"[1]": {"biological_target": "T1, Qki-5 full-length (UniProt Q9QYS9 1-341)", "T1 sequence": "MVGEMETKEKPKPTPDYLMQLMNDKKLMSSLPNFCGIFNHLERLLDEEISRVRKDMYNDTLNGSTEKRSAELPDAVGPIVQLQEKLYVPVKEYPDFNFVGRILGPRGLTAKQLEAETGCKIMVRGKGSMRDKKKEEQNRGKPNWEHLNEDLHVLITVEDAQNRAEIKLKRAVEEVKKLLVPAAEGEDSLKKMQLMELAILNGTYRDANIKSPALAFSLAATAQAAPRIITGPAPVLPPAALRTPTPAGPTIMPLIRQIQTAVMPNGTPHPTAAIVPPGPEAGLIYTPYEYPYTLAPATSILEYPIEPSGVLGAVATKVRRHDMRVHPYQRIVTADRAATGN", "test": "MST; MST: 20 nM Atto488-protein, PBS with Tween-20 (0.1% in 2x protein stock), 25 C; ITC: 50 mM Tris pH 7.5, 150 mM NaCl, 20 C", "conditions": "protein: recombinant; tags: N-terminal Trx-His6 (PreScission site); Atto488-NHS labeled for MST; chain copies: 2"}, "[2]": {"biological_target": "T2, Qki-5 STAR domain (UniProt Q9QYS9 7-214)", "T2 sequence": "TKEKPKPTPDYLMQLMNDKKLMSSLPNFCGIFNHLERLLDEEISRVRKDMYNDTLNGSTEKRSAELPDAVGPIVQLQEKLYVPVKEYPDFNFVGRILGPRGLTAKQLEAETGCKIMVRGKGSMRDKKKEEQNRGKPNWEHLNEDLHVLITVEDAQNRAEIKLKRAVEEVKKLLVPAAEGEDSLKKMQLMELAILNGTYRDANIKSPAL", "test": "ITC; text says KH domain of Qki; assayed construct is STAR; MST: 20 nM Atto488-protein, PBS with Tween-20 (0.1% in 2x protein stock), 25 C; ITC: 50 mM Tris pH 7.5, 150 mM NaCl, 20 C", "conditions": "protein: recombinant; tags: N-terminal Trx-His6 (PreScission site); chain copies: 2"}, "[3]": {"biological_target": "T1, Qki-5 full-length", "test": "MST; Kd only in figure; MST: 20 nM Atto488-protein, PBS with Tween-20 (0.1% in 2x protein stock), 25 C; ITC: 50 mM Tris pH 7.5, 150 mM NaCl, 20 C", "conditions": "protein: recombinant; tags: N-terminal Trx-His6 (PreScission site); Atto488-NHS labeled for MST; chain copies: 2"}, "[4]": {"biological_target": "T2, Qki-5 STAR domain", "test": "ITC; Kd only in figure; MST: 20 nM Atto488-protein, PBS with Tween-20 (0.1% in 2x protein stock), 25 C; ITC: 50 mM Tris pH 7.5, 150 mM NaCl, 20 C", "conditions": "protein: recombinant; tags: N-terminal Trx-His6 (PreScission site); chain copies: 2"}, "[5]": {"biological_target": "T1, Qki-5 full-length", "test": "ITC; Kd only in figure; MST: 20 nM Atto488-protein, PBS with Tween-20 (0.1% in 2x protein stock), 25 C; ITC: 50 mM Tris pH 7.5, 150 mM NaCl, 20 C", "conditions": "protein: recombinant; tags: N-terminal Trx-His6 (PreScission site); Atto488-NHS labeled for MST; chain copies: 2"}}}
{"binder": "CCAGTAACCAG (ssDNA)", "note": "[QDE1]", "values": [{"measurement": "Kd", "setting": "[1]", "value": 2.01, "unit": "µM"}, {"measurement": "Kd", "setting": "[2]", "value": 11.9, "unit": "µM"}]}
{"binder": "GGGGTAAGGGG (ssDNA)", "note": "[QDE4]", "values": [{"measurement": "Kd", "setting": "[1]", "value": 81, "unit": "µM"}]}
{"binder": "CTTACGCTAAG (ssDNA)", "note": "[QDE2]", "values": [{"measurement": "binding result", "setting": "[3]", "value": "binds"}]}
{"binder": "CCTGTAACTGG (ssDNA)", "note": "[QDE3]", "values": [{"measurement": "binding result", "setting": "[3]", "value": "binds"}]}
{"binder": "CAGATAACGCG (ssDNA)", "note": "[QDE5]", "values": [{"measurement": "binding result", "setting": "[3]", "value": "binds"}]}
{"binder": "CAGAGCGCGCG (ssDNA)", "note": "[QDE5-m]", "values": [{"measurement": "Kd", "setting": "[1]", "value": 83, "unit": "µM"}]}
{"binder": "CUUCUUAAUAUAACUGCCUUAAACUUUAAU (ssRNA)", "note": "[QRE1]", "values": [{"measurement": "binding result", "setting": "[3]", "value": "binds"}]}
{"binder": "UUCACUAACAA (ssRNA)", "note": "[QRE2]", "values": [{"measurement": "binding result", "setting": "[4]", "value": "binds"}, {"measurement": "binding result", "setting": "[5]", "value": "binds"}]}
